How the values were obtained:
[1] = system: T1, full size human chemokine HCC-1 (residues 1-74)
T1 sequence: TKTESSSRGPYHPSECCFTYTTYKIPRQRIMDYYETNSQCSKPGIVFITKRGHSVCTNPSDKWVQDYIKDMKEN

[2] = system: processed human chemokine PHC-1 (HCC-1[9-74])

| Substance | proteolytic cleavage (tryptic digestion, enzyme/substrate-ratio (w/w) 1/100, one hour) [1] | proteolytic degradation (tryptic digestion with increased incubation time) [2] | activity of 50 nM PHC-1 after incubation with 10 or 100 IU purified urokinase [2] |
| --- | --- | --- | --- |
| trypsin | the 74 residue peptide was in part cleaved into smaller fragments. One cleavage product, the newly identified biologically active peptide PHC-1 | trypsin generated PHC-1 then degrades PHC-1 into inactive fragments when the incubation time is increased |  |
| urokinase (purified CHOAY urokinase, Sanofi Wintrop; uPA) |  |  | No change of activity was observed after an incubation of 90 min at 37 °C |
